Measured values published in article PMC7708047, “VEZF1–guanine quadruplex DNA interaction regulates alternative polyadenylation and detyrosinase activity of VASH1”.

T1: VEZF1-3xFlag (Homo sapiens, UniProt Q14119 1-521)
T1 sequence: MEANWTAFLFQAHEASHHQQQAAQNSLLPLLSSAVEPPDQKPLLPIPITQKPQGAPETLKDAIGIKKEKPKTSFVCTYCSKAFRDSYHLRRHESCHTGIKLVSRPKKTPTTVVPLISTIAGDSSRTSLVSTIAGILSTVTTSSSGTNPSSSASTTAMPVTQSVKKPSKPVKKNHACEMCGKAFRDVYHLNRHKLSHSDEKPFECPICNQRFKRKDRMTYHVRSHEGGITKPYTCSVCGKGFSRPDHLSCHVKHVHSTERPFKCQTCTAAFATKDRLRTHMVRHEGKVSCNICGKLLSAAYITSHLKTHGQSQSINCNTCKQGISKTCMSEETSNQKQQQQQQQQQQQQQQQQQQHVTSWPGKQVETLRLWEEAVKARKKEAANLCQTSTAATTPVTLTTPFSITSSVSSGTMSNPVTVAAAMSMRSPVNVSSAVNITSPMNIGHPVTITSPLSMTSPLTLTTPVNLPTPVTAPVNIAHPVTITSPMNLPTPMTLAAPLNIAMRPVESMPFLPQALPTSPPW

B1: MYC M4 (ssDNA)
DNA: TGAGGGTGAGGAGTGTGGGGA
B2: R1M4-1 (ssDNA)
DNA: GTGTGAGGTGGAAGTGAAAGAAGTGAAGAGCAGTGAGAGTGTGCC
B3: MYC G4 (structured_DNA)
DNA: TGAGGGTGGGGAGGGTGGGGA
B4: R1M4-2 (ssDNA)
DNA: TCGTGAGTGTGGAGTGAGGTGCTGTGCCTGAGCTGAGAGCAGCTTAGTTTGCA
B5: hTEL M4 (ssDNA)
DNA: AAAGGGTTAGTGTTAGTGTTAGGGAA
B6: hTEL G4 (structured_DNA)
DNA: AAAGGGTTAGGGTTAGGGTTAGGGAA

Target: T1, VEZF1-3xFlag
Experiment: EMSA; 100 mM K+, 10 uM Zn2+; EMSA: 25 nM DNA, 10 mM Tris-HCl pH 7.5, 100 mM KCl, 10 uM ZnCl2, 1 mM DTT, 3% glycerol, on ice 30 min; 6% PAGE in TBE pH 8.3, 4 C
Conditions: protein: recombinant, tags: C-terminal 3xFlag, label: 5'-TAMRA

Binder | binding result (single strand) | Kd (G4) [nM] | further results
B1 | no binding | – | –
B2 | no binding | – | –
B3 | – | 2060 ± 120 | –
B4 | no binding | – | –
B5 | – | – | Kd (single strand): 1640 ± 70 nM
B6 | – | 780 ± 40 | –
